Data taken from patent US20190345535A1.

What was measured:
Test in all cases: cell-based or functional assay
[1] = target: GFP^2-Pflu1-RLuc2 fusion protein (Pflu sensor 1)
[2] = target: GFP^2-Pflu-H3-RLuc2 fusion protein
[3] = target: GFP^2-Pflu2-RLuc2 fusion protein (Pflu sensor 2)
[4] = target: GFP^2-Pflu3-RLuc2 fusion protein (Pflu sensor 3)
[5] = target: GFP^2-plas1-RLuc2 fusion protein (BRET^2 plasmin sensor)

bovine plasmin (Sigma), sequence (P06868 104-812 limits assumed): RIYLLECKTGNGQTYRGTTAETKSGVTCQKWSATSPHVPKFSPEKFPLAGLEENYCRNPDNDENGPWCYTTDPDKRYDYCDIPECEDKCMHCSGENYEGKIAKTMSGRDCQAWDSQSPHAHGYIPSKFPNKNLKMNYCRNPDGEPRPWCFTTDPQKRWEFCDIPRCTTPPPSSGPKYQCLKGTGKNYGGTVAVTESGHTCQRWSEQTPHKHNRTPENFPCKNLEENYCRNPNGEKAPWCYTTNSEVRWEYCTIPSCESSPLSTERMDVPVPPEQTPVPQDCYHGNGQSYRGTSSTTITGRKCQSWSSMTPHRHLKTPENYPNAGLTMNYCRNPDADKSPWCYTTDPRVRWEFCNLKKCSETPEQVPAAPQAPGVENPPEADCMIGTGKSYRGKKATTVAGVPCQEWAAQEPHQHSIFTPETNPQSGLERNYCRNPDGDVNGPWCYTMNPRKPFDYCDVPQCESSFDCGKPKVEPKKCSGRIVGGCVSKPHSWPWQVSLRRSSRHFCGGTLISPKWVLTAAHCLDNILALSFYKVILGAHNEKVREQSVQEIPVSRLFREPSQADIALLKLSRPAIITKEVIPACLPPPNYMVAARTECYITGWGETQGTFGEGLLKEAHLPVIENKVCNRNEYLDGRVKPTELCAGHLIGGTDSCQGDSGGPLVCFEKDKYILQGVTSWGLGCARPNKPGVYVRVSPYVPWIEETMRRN
human plasmin (Sigma), sequence (P00747 97-810 limits assumed): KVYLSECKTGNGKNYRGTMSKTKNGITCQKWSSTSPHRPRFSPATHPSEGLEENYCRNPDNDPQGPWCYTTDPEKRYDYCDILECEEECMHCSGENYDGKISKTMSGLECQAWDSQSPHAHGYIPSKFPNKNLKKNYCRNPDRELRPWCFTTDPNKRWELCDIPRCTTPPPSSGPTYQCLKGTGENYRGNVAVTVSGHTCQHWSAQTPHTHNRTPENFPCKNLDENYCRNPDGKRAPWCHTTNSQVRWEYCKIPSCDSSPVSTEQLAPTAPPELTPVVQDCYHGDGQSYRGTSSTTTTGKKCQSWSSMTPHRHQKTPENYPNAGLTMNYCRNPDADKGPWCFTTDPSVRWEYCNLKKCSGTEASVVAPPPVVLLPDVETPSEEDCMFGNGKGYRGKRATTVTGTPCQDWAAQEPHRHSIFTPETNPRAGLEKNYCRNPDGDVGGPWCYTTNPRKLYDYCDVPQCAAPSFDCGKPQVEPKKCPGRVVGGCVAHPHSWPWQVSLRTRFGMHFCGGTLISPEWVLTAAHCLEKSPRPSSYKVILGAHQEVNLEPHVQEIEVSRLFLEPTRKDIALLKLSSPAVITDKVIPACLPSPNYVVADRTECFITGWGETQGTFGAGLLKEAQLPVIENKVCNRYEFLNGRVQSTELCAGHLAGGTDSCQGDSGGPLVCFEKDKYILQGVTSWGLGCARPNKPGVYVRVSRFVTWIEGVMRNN

| EC50, BRET^2 response, 50% full fat UHT milk [1] [nM] | EC50, BRET^2 response, 50% full fat UHT milk [5] [nM] | Substance | EC50, BRET^2 response, raw milk [1] [nM] | EC50, BRET^2 response, raw milk, protease concentration by BSA standard [1] [nM] | EC50, BRET^2 response, raw milk [2] [nM] | EC50, BRET^2 response, 50% full fat UHT milk [3] [nM] | EC50, BRET^2 response, 50% full fat UHT milk [4] [nM] | other results |
| --- | --- | --- | --- | --- | --- | --- | --- | --- |
|  |  | crude bacterial protease from Pseudomonas fluorescens strain 117 (enzyme) | 0.2 | 2.6 |  |  |  |  |
| 169 | 108 | bovine plasmin (Sigma) (from UniProt P06868 97-805) (enzyme) |  |  | 174 |  |  |  |
| 124 | 5.6 | human plasmin (Sigma) (from UniProt P00747 97-810) (enzyme) |  |  |  | 926 | 1280 | EC50, BRET^2 response, heat treated raw milk, one-step pre-treatment protocol [5]: 24.2 nM; EC50, BRET^2 response, heat treated raw milk, one-step pre-treatment with low power sonication [5]: 29.3 nM; EC50, BRET^2 response, heat treated raw milk, pre-treatment protocol of Rauh et al. (2014) [5]: 19.5 nM; EC50, BRET^2 response, heat treated raw milk, two-step pre-treatment protocol [5]: 16 nM |

| Substance | EC50, BRET^2 response, 50% full fat UHT milk [1] [nM] | EC50, BRET^2 response, 50% full fat UHT milk [5] [nM] | EC50, BRET^2 response, raw milk [1] [nM] | EC50, BRET^2 response, raw milk, protease concentration by BSA standard [1] [nM] | EC50, BRET^2 response, raw milk [2] [nM] | EC50, BRET^2 response, 50% full fat UHT milk [3] [nM] | EC50, BRET^2 response, 50% full fat UHT milk [4] [nM] | other results |
| --- | --- | --- | --- | --- | --- | --- | --- | --- |
| crude bacterial protease from Pseudomonas fluorescens strain 65 (enzyme) | 0.7 | 50 | 0.14 | 1.63 | 0.5 | 2.6 | 2.3 | EC50, BRET^2 response, raw milk, protease concentration by BSA standard [2]: 5.4 nM; EC50, BRET^2 response, 50% full fat UHT milk, protease concentration by BSA standard [1]: 8.2 nM; EC50, BRET^2 response, 50% raw milk, no pre-treatment, 10 mins. incubation [1]: 0.14 nM; EC50, BRET^2 response, 50% raw milk, no pre-treatment, 2 hrs incubation [1]: 0.0339 nM; EC50, BRET^2 response, 50% raw milk, pre-treatment, 10 mins. incubation [1]: 0.353 nM; EC50, BRET^2 response, 50% raw milk, pre-treatment, 2 hrs incubation [1]: 0.1 nM; EC50, BRET^2 response, 50% full fat UHT milk, protease concentration by BSA standard [3]: 30.4 nM; EC50, BRET^2 response, 50% full fat UHT milk, protease concentration by BSA standard [4]: 26.4 nM; EC50, BRET^2 response, 50% full fat UHT milk, protease concentration by BSA standard [5]: 580 nM; EC50, BRET^2 response, raw milk [5]: 1.4 nM; EC50, BRET^2 response, raw milk, protease concentration by BSA standard [5]: 16.2 nM |
